Data taken from US11732029B2, “Methods and compositions for the treatment of wounds” (The University of Chicago, priority 2017, dated 2023).

Columns and labels:
human lung fibroblasts = assay: Cell proliferation assay with vWF HBD, fibroblasts; assay type: cell-based; conditions: vWF HBD coated plates, 72 hrs, in the presence of FGF-2
Description: Cell proliferation assays were performed as previously reported1. Briefly, human lung fibroblasts (Lonza) were cultured using FGM-2 medium (Lonza) (1000 cells/well) or human umbilical vein endothelial cells (HUVEC, Lonza) were cultured using EGM-2 medium (Lonza) (1000 cells/well) on 1 μg/mL vWF HBD pre-coated 96-well plates (Tissue culture treated, Falcon). Cell numbers were quantified after 72 hrs using a CyQUANT assay (Invitrogen).

VEGF-A165 = target: T1, VEGF-A165 (Homo sapiens, UniProt P15692); assay: vWF binding to recombinant VEGF-A isoforms (ELISA); conditions: plate coated with 50 nM vWF domains, 1 μg/mL VEGF-A, vs BSA
T1 construct: All growth factors (GFs) and chemokines were purchased in their mature forms; purchased PeproTech; host or cells: Escherichia coli
T1 sequence (P15692 27-191 isoform P15692-4 limits assumed): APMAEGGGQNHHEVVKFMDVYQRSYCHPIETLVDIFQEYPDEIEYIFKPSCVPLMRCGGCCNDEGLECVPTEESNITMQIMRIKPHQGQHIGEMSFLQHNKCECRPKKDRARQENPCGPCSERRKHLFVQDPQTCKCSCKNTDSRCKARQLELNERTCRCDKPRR
Description: (§1) ELISA was performed as previously reported1. In brief, ELISA plates (med binding: Greiner Bio-One) were coated with 50 nM BSA (GE Healthcare), pro-peptide containing recombinant vWF (Sino Biological), plasma-derived vWF (EMD Millipore), recombinant human vWF A1 domain (U-Protein Express), recombinant human vWF A2 domain (R & D systems), recombinant human vWF A3 domain (U-Protein Express), vWF A1 HBD peptide or scrambled/mutated HBD peptide (all peptides were synthesized by Genscript). After blocking with 2% BSA solution containing PBS-T, 1 μg/mL of recombinant human VEGF-A121 (PeproTech), recombinant human VEGF-A145 (R & D Systems), or recombinant human VEGF-A165 (PeproTech) was added. Bound VEGF-A was detected with 1 μg/mL of mouse anti-human VEGF-A antibody (clone: 26503, R & D systems). After 60 min of incubation, horseradish peroxidase (HRP) conjugated goat anti-mouse antibody (1:2000 dilution, Dako) was added and incubated for another 60 min. Color development and the absorbance measurement were done as described above.

VEGF-A145 = target: T2, VEGF-A145 (Homo sapiens, UniProt P15692); assay: vWF binding to recombinant VEGF-A isoforms (ELISA); conditions: plate coated with 50 nM vWF domains, 1 μg/mL VEGF-A, vs BSA
T2 construct: All GFs and chemokines were purchased in their mature forms; purchased R & D Systems
T2 sequence (P15692 27-171 isoform P15692-6 limits assumed): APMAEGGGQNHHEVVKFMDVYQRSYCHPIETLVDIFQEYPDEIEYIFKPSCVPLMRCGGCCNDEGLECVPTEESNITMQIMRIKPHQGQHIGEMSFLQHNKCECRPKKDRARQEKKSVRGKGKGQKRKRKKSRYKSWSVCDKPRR
Description: as §1

VEGF-A121 = target: T3, VEGF-A121 (Homo sapiens, UniProt P15692); assay: Recombinant GF binding to the vWF recombinant protein and A1 HBD peptide (ELISA); set-up: All growth factors (GFs) and chemokines were purchased in their mature forms; purchased PeproTech; host or cells: Escherichia coli; conditions: plate coated with vWF protein, A1 domain or HBD peptide, 1 μg/mL GF
T3 sequence (P15692 27-147 isoform P15692-9 limits assumed): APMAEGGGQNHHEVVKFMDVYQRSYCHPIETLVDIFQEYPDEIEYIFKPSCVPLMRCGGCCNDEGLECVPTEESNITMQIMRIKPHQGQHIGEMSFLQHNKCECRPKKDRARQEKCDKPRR
Description: (§2) ELISA tests were performed as described above. In brief, ELISA plates were coated with 1 μg/mL of FL-vWF (WT or R1341Q), 1 μg/mL of vWF A1 recombinant protein (U-Protein Express) or 1 μg/mL of vWF A1 HBD peptide (sequence […], (SEQ ID NO:50) chemically synthesized by Genscript) at 37° C. overnight. After blocking with 2% BSA solution containing PBS-T, 1 μg/mL of the recombinant human proteins VEGF-A121, VEGF-A165, PlGF-1, PlGF-2, PDGF-BB, FGF-2, CXCL-12α and CXCL-12γ were added. 1 μg/mL of BSA served as non-binding protein control. Bound GF or chemokine was detected with biotinylated antibodies for human VEGF-A, PlGF, PDGF-BB, FGF-2, or CXCL-12 (R & D Systems). The antibodies were detected by streptavidin-HRP (R & D Systems). Color development and the absorbance measurement were done as described above.

PlGF-2 = target: T4, PlGF-2 (Homo sapiens, UniProt P49763); assay: as above; set-up: All growth factors (GFs) and chemokines were purchased in their mature forms; purchased PeproTech; host or cells: Escherichia coli; conditions: plate coated with vWF protein, A1 domain or HBD peptide, 1 μg/mL GF
T4 sequence (P49763 19-170 isoform P49763-3 limits assumed): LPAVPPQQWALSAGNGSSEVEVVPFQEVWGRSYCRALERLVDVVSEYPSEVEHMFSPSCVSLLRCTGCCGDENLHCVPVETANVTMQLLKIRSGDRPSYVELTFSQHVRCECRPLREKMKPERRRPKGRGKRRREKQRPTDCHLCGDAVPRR
Description: as §2

PlGF-1 = target: T5, PlGF-1 (Homo sapiens, UniProt P49763); assay: as above; set-up: All growth factors (GFs) and chemokines were purchased in their mature forms; purchased PeproTech; host or cells: Escherichia coli; conditions: plate coated with vWF protein, A1 domain or HBD peptide, 1 μg/mL GF
T5 sequence (P49763 19-149 isoform P49763-2 limits assumed): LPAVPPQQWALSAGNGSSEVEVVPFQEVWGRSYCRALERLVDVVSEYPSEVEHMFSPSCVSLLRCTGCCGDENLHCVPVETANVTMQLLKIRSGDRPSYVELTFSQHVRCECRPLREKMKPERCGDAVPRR
Description: as §2

FGF-2 = FGF-2 (Homo sapiens, UniProt P09038); assay: as above; set-up: All growth factors (GFs) and chemokines were purchased in their mature forms; purchased PeproTech; host or cells: Escherichia coli; conditions: plate coated with vWF protein, A1 domain or HBD peptide, 1 μg/mL GF
Sequence of FGF-2 (P09038 143-288): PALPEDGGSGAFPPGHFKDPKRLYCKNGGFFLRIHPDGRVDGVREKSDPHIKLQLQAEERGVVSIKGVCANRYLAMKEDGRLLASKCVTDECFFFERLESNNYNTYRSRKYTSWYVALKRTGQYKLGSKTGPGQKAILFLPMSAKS
Description: as §2

binding to PlGF-2 (PlGF-2) | binding to FGF-2 (FGF-2) | Substance | fibroblast proliferation (human lung fibroblasts) | binding to VEGF-A165 (VEGF-A165) | binding to VEGF-A145 (VEGF-A145) | binding to VEGF-A121 (VEGF-A121) | binding to PlGF-1 (PlGF-1)
showed binding | showed binding | YIGLKDRKRPSELRRIASQVKYAC [vWF HBD] | did not significantly affect fibroblast proliferation | able to bind | able to bind | neither VEGF-A121 nor PlGF-1 were able to bind | neither VEGF-A121 nor PlGF-1 were able to bind
– | – | vWF: human plasma-derived von Willebrand factor (EMD Millipore) | – | bind | bound | – | –
